B1: N1036A: ZRANB3 HNH active site mutant (protein, UniProt Q5FWF4 1-1079, looked up, variant N1036A)
DNA annealing helicase and …: MPRVHNIKKSLTPHISCVTNESDNLLDFLPDRLRAKLLPFQKDGIIFALKRNGRCMVADEMGLGKTIQAIGITYFYKEEWPLLIVVPSSLRYPWTEEIEKWIPELSPEEINVIQNKTDVRRMSTSKVTVLGYGLLTADAKTLIDALNNQNFKVVIVDESHYMKSRNATRSRILLPIVQKARRAILLTGTPALGRPEELFMQIEALFPQKFGRWTDYAKRYCNAHIRYFGKRPQWDCRGASNLNELHQLLSDIMIRRLKTEVLTQLPPKVRQRIPFDLPSAAAKELNTSFEEWEKIMRTPNSGAMETVMGLITRMFKQTAIAKAGAVKDYIKMMLQNDSLKFLVFAHHLSMLQACTEAVIENKTRYIRIDGSVSSSERIHLVNQFQKDPDTRVAILSIQAAGQGLTFTAASHVVFAELYWDPGHIKQAEDRAHRIGQCSSVNIHYLIANGTLDTLMWGMLNRKAQVTGSTLNGRKEKIQAEEGDKEKWDFLQFAEAWTPNDSSEELRKEALFTHFEKEKQHDIRSFFVPQPKKRQLMTSCDESKRFREENTVVSSDPTKTAARDIIDYESDVEPETKRLKLAASEDHCSPSEETPSQSKQIRTPLVESVQEAKAQLTTPAFPVEGWQCSLCTYINNSELPYCEMCETPQGSAVMQIDSLNHIQDKNEKDDSQKDTSKKVQTISDCEKQALAQSEPGQLADSKEETPKIEKEDGLTSQPGNEQWKSSDTLPVYDTLMFCASRNTDRIHIYTKDGKQMSCNFIPLDIKLDLWEDLPASFQLKQYRSLILRFVREWSSLTAMKQRIIRKSGQLFCSPILALEEITKQQTKQNCTKRYITKEDVAVASMDKVKNVGGHVRLITKESRPRDPFTKKLLEDGACVPFLNPYTVQADLTVKPSTSKGYLQAVDNEGNPLCLRCQQPTCQTKQACKANSWDSRFCSLKCQEEFWIRSNNSYLRAKVFETEHGVCQLCNVNAQELFLRLRDAPKSQRKNLLYATWTSKLPLEQLNEMIRNPGEGHFWQVDHIKPVYGGGGQCSLDALQTLCTVCHKERTARQAKERSQVRRQSLASKHGSDITRFLVKK
B2: T66A: cancer associated ZRANB3 mutant (protein, UniProt Q5FWF4 1-1079, looked up, variant T66A)
DNA annealing helicase and …: B1 DNA annealing helicase and … with T66A, A1036N
B3: H1015A: ZRANB3 HNH active site mutant (protein, UniProt Q5FWF4 1-1079, looked up, variant H1015A)
DNA annealing helicase and …: B1 DNA annealing helicase and … with H1015A, A1036N
B4: D1020A: ZRANB3 HNH active site mutant (protein, UniProt Q5FWF4 1-1079, looked up, variant D1020A)
DNA annealing helicase and …: B1 DNA annealing helicase and … with D1020A, A1036N
B5: D1020Y: cancer associated ZRANB3 mutant (protein, UniProt Q5FWF4 1-1079, looked up, variant D1020Y)
DNA annealing helicase and …: B1 DNA annealing helicase and … with D1020Y, A1036N
B6: K1046A, R1048A: ZRANB3 double mutant in helix α8 (protein, UniProt Q5FWF4 1-1079, looked up, variant K1046A R1048A)
DNA annealing helicase and …: B1 DNA annealing helicase and … with A1036N, K1046A, R1048A
B7: WT ZRANB3: full-length human ZRANB3, recombinant; YFP-tagged in the cell assay (protein)
chain: B1 DNA annealing helicase and … with A1036N
modifications: left off: His6, N-terminal, cleaved
notes: full-length human ZRANB3, recombinant; YFP-tagged in the cell assay
B8: H1045A: ZRANB3 HNH active site mutant (protein, UniProt Q5FWF4 1-1079, looked up, variant H1045A)
DNA annealing helicase and …: B1 DNA annealing helicase and … with A1036N, H1045A
B9: R947Q: cancer associated ZRANB3 mutant (protein, UniProt Q5FWF4 1-1079, looked up, variant R947Q)
DNA annealing helicase and …: B1 DNA annealing helicase and … with R947Q, A1036N
B10: H1021A: ZRANB3 HNH active site mutant (protein, UniProt Q5FWF4 1-1079, looked up, variant H1021A)
DNA annealing helicase and …: B1 DNA annealing helicase and … with H1021A, A1036N

This note sets out measurements from paper PMC5481773, “Structural insights into the function of ZRANB3 in replication stress response” (Nature Communications, 2017).

Substitutions are numbered along the chain they refer to. Numbers in names are those of the source. Some results are limits rather than exact numbers.

Tested on in the first data set: not listed separately
Description: NADH-coupled ATPase assay of ZRANB3 proteins. Format: biochemical. To be noted: 150 nM ZRANB3, 5 mM ATP, 0.5 μM flap DNA, 24 °C, A340 nm, average rates. Here is the method: The NADH-coupled ATPase assay is based on a reaction in which the regeneration of hydrolysed ATP is coupled to the oxidation of NADH[59]. It was used as described, with minor modifications. ZRANB3 (150 nM) was added to a 150 μl reaction containing 25 mM Tris-Cl pH 7.5, 13 mM MgCl2, 1.8 mM DTT, 100 μg ml^−1 BSA, 3 mM phosphoenolpyruvate, 36 U ml^−1 pyruvate kinase, 20 U ml^−1 lactate dehydrogenase, 0.5 μM flap DNA, and 5 mM ATP, with 750 μM NADH added immediately before ZRANB3. Reactions were mixed for 1 min on a shaker at 23 °C and analysed by measuring A340 nm at 20 s intervals during 60 min, on a Spectramax 250 microplate spectrophotometer at 24 °C. Linear titration of freshly prepared NADH was performed to obtain a standard curve for units of absorbance mM^−1 NADH. ATPase rates were calculated from data collected between time points where product formation was linear with respect to time.
B1 registered an ATP hydrolysis rate of 14.05 ± 2.46 µmol/L/min.

With B2, the ATP hydrolysis rate is 0.45 ± 0.03 µmol/L/min.

With B3, the ATP hydrolysis rate came to 18.67 ± 2.24 µmol/L/min.

The molecule B4 gave an ATP hydrolysis rate of 12.94 ± 0.67 µmol/L/min.

Consider B5, for which the ATP hydrolysis rate was determined as 11.60 ± 3.30 µmol/L/min.

With B6, the ATP hydrolysis rate came out at 19.38 ± 1.74 µmol/L/min.

For the molecule B7, the ATP hydrolysis rate is 16.59 ± 0.34 µmol/L/min.

Molecule B8 had an ATP hydrolysis rate of 8.91 ± 0.66 µmol/L/min.

B9: the ATP hydrolysis rate is 10.24 ± 1.15 µmol/L/min.

For B10, the ATP hydrolysis rate was determined as 18.59 ± 1.98 µmol/L/min.

Still in this data set, the particulars now being: 150 nM ZRANB3, 5 mM ATP, 0.5 μM flap DNA, 24 °C, average rates.
As to B1, the k is 93.71 ± 16.43 min⁻¹.

Molecule B2 registered a k of 3.02 ± 0.21 min⁻¹.

In turn, B3 displayed a k of 124.46 ± 14.96 min⁻¹.

Molecule B4 came in with a k of 86.32 ± 4.49 min⁻¹.

Molecule B5 registered a k of 77.36 ± 22.04 min⁻¹.

As to B6, the k amounted to 129.23 ± 11.62 min⁻¹.

B7 yielded a k of 110.65 ± 2.27 min⁻¹.

In the case of B8, the k turned out to be 59.42 ± 4.40 min⁻¹.

On to B9, for which the k is 68.26 ± 7.70 min⁻¹.

For the molecule B10, the k was 123.95 ± 13.19 min⁻¹.

A further data set relates to U2OS cells. Description: Colocalization of YFP-ZRANB3 foci with endogenous PCNA. The format is cell-based. Particulars: U2OS cells transfected with YFP-ZRANB3, UV 40 J m^−2, 6 h recovery; average of three experiments. An excerpt:
Figure 5 PCNA-dependent recruitment of ZRANB3. (a) Recruitment of FEN1 to the sites of laser induced DNA damage is abrogated by the mutations in the PIP box (Q337A, F343A and F344A). U2OS cells were transiently transfected with the indicated YFP constructs and analysed by live-cell imaging. Shown are representative images at the indicated time points post damage. (b) Recruitment of the YFP-tagged PIP box and APIM motif to the sites of laser induced DNA damage. Recruitment is abrogated by the mutations of the conserved residues in the PIP box and the APIM motif. […] The percentage of cells containing ZRANB3 foci that colocalize with PCNA was determined. […]
U2OS cells (ATCC) were seeded onto glass coverslips and transfected with the YFP constructs using Lipofectamine 2000 (Life Technologies). […] The coverslips were mounted in ProLong Gold anti-fade reagent with DAPI (Life Technologies) and analysed by confocal microscopy.
For the recruitment of ZRANB3 to stalled replication forks, U2OS cells were seeded onto glass coverslips and transfected with YFP-ZRANB3 constructs. […] Finally, the samples were analysed by confocal microscopy. For each experiment, more than 100 cells were counted, and the results from three independent transfections were pooled for statistical analyses.
Consider B7, for which the “cells that formed ZRANB3 foci (colocalizing with PCNA)” value is given as above 95%.

The same data set, now with this note: U2OS cells transfected with YFP-ZRANB3, undamaged conditions; average of three experiments.
As for B7, the “cells that formed ZRANB3 foci (colocalizing with PCNA)” value is reported as around 20%.

Another data set concerns splayed DNA duplex. The experiment in a line: Nuclease assay with wild-type and mutant ZRANB3 proteins. The format is biochemical. To be noted: 200 nM nuclease, 10 nM fluorescently labelled DNA substrate, 2 mM ATP, 30 °C, 60 min, native PAGE (Fig. 3c). An excerpt: Figure 3 Characterisation of the ZRANB3 HNH active site. (a) Overlay of the T4 endonuclease VII (yellow) and the ZRANB3 HNH (white) structures. […] (b) Overlay of the T4 endonuclease VII (yellow, labels in italics) and the ZRANB3 HNH (white) structures. Mg^2+ ion in T4 endonuclease is shown as a purple sphere. His1021, Asp1020 and His1045 in the HNH structure overlap with the active site residues of T4 endonuclease VII. (c) Nuclease assay with the wild-type and mutant ZRANB3 proteins in the presence and absence of ATP. Reactions were analysed by native poly-acrylamide gel electrophoresis. Indicated are mobilities of the fluorescently labelled DNA substrate and product. (d) Nuclease assay with non-hydrolysable ATP homologues. Shown are controls with the wild-type ZRANB3 and the ATPase dead K65R mutant in the presence of ATP.
Oligonucleotides used in the nuclease assays (5′-[…]-[…]-3′ and Cy3 5′-end-labelled 5′-[…]-[…]-3′) were incubated in 10 mM Tris-HCl pH 7.5, 50 mM NaCl for 3 min at 94 °C, after which the reactions were allowed to gradually cool down.
The nuclease assays with ZRANB3 was performed essentially as described in ref. [9]. Briefly, reaction mixtures containing the indicated nuclease (200 nM) and fluorescently labelled DNA substrate (10 nM) in 10 μl of reaction buffer (50 mM Tris-HCl; 50 mM NaCl; 5 mM MgCl2; 2 mM ATP (Sigma); pH 7.5) were incubated at 30 °C for 60 min. The reactions were stopped by incubation with 0.1% SDS and 4 mg ml^−1 of proteinase K at 30 °C for 45 min. The reactions were then mixed with sucrose (10% final concentration) and resolved in a 10% polyacrylamide gel in 0.5 × TBE buffer (45 mM Tris-borate, 1 mM EDTA; pH 7.5). The fluorescent DNA species were visualized and quantified using Pharos Mx imager and Quantity one software (BioRad).
On to B1, for which the “ZRANB3 endonuclease activity of mutant protein” value (shortened to “ZRANB3 endonuclease activity”) is “substantially reduced”.

For the molecule B4, the “ZRANB3 endonuclease activity” value is reported as “completely abrogated”.

With B8, the “ZRANB3 endonuclease activity” value is on record as “completely abrogated”.

For B10, the “ZRANB3 endonuclease activity” value is “completely abrogated”.
